US20100120171A1

Tests used:
[1] = biological target: recombinant fragment of human VE-cadherin extracellular region, CAD 1-4 fragment (Asp48-Glu478, preceded by Met), SEQ ID NO: 4 (human) (UniProt P33151); test: sandwich ELISA, BV9 capture, rabbit polyclonal detection; CAD1-4 at 0.63 ng/mL; mean OD minus OD at 0 ng/mL
[2] = biological target: recombinant fragment of human VE-cadherin extracellular region, CAD 1-4 fragment (Asp48-Glu478, preceded by Met), SEQ ID NO: 4 (human) (UniProt P33151); test: sandwich ELISA, BV9 capture, rabbit polyclonal detection; CAD1-4 at 5 ng/mL; first replicate
[3] = biological target: recombinant fragment of human VE-cadherin extracellular region, CAD 1-4 fragment (Asp48-Glu478, preceded by Met), SEQ ID NO: 4 (human) (UniProt P33151); test: sandwich ELISA, BV9 capture, rabbit polyclonal detection; CAD1-4 at 5 ng/mL; mean OD minus OD at 0 ng/mL
[4] = biological target: recombinant fragment of human VE-cadherin extracellular region, CAD 1-4 fragment (Asp48-Glu478, preceded by Met), SEQ ID NO: 4 (human) (UniProt P33151); test: sandwich ELISA, BV9 capture, rabbit polyclonal detection; CAD1-4 at 10 ng/mL; mean OD minus OD at 0 ng/mL
[5] = biological target: recombinant fragment of human VE-cadherin extracellular region, CAD 1-4 fragment (Asp48-Glu478, preceded by Met), SEQ ID NO: 4 (human) (UniProt P33151); test: sandwich ELISA, BV9 capture, rabbit polyclonal detection; CAD1-4 at 1.25 ng/mL
[6] = biological target: recombinant fragment of human VE-cadherin extracellular region, CAD 1-4 fragment (Asp48-Glu478, preceded by Met), SEQ ID NO: 4 (human) (UniProt P33151); test: sandwich ELISA, BV9 capture, rabbit polyclonal detection; CAD1-4 at 2.5 ng/mL; mean OD minus OD at 0 ng/mL
[7] = biological target: recombinant fragment of human VE-cadherin extracellular region, CAD 1-4 fragment (Asp48-Glu478, preceded by Met), SEQ ID NO: 4 (human) (UniProt P33151); test: sandwich ELISA, BV9 capture, rabbit polyclonal detection; CAD1-4 at 2.5 ng/mL
[8] = biological target: recombinant fragment of human VE-cadherin extracellular region, CAD 1-4 fragment (Asp48-Glu478, preceded by Met), SEQ ID NO: 4 (human) (UniProt P33151); test: sandwich ELISA, BV9 capture, rabbit polyclonal detection; CAD1-4 at 10 ng/mL
[9] = biological target: recombinant fragment of human VE-cadherin extracellular region, CAD 1-4 fragment (Asp48-Glu478, preceded by Met), SEQ ID NO: 4 (human) (UniProt P33151); test: sandwich ELISA, BV9 capture, rabbit polyclonal detection; CAD1-4 at 10 ng/mL; first replicate
[10] = biological target: recombinant fragment of human VE-cadherin extracellular region, CAD 1-4 fragment (Asp48-Glu478, preceded by Met), SEQ ID NO: 4 (human) (UniProt P33151); test: sandwich ELISA, BV9 capture, rabbit polyclonal detection; CAD1-4 at 10 ng/mL; remark: listed apart in the source
[11] = biological target: recombinant fragment of human VE-cadherin extracellular region, CAD 1-4 fragment (Asp48-Glu478, preceded by Met), SEQ ID NO: 4 (human) (UniProt P33151); test: sandwich ELISA, BV9 capture, rabbit polyclonal detection; CAD1-4 at 0.63 ng/mL; mean OD minus OD at 0 ng/mL; remark: listed apart in the source
[12] = biological target: recombinant fragment of human VE-cadherin extracellular region, CAD 1-4 fragment (Asp48-Glu478, preceded by Met), SEQ ID NO: 4 (human) (UniProt P33151); test: sandwich ELISA, BV9 capture, rabbit polyclonal detection; CAD1-4 at 1.25 ng/mL; second replicate

Chain of UniProt P33151 (P33151 other isoform, or with tags, fused parts or gaps limits assumed): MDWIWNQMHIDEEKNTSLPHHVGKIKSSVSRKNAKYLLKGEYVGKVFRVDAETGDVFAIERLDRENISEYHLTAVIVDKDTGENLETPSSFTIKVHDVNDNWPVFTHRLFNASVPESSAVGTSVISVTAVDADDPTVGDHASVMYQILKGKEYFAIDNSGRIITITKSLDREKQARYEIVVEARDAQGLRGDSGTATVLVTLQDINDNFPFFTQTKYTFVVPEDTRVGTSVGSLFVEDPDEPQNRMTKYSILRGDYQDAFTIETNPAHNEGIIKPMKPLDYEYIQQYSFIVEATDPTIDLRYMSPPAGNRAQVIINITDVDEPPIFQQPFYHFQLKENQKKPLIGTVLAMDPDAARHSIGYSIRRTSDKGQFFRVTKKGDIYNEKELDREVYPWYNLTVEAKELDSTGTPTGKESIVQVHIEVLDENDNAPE

anti-VEcadherin mouse mAb, clone BV9 (Abcam, product datasheet ab7047) (antibody)
Corr. OD [1]: 0.051 OD
OD [2]: 1.34 OD
Corr. OD [3]: 0.512 OD
Corr. OD [4]: 1.06 OD
mean OD [5]: 1 OD
Corr. OD [6]: 0.288 OD
OD1 [7]: 0.988 OD
OD2 [7]: 0.985 OD
mean OD [7]: 0.987 OD
OD1 [8]: 1.76 OD
OD2 [8]: 1.76 OD
mean OD [8]: 1.76 OD
OD [9]: 1.9 OD
mean OD [10]: 1.95 OD
Corr. OD [11]: 0.087 OD
OD [12]: 0.932 OD
